Reference: publication PMC11344481 (Journal of proteome research, 2024)

Key:
[1] = target: malate dehydrogenase (human (endogenous in heart tissue)) (UniProt P40925); assay: native MS
native MS = target: the molecule itself; assay: native MS

Sequence of malate dehydrogenase (P40925 whole entry): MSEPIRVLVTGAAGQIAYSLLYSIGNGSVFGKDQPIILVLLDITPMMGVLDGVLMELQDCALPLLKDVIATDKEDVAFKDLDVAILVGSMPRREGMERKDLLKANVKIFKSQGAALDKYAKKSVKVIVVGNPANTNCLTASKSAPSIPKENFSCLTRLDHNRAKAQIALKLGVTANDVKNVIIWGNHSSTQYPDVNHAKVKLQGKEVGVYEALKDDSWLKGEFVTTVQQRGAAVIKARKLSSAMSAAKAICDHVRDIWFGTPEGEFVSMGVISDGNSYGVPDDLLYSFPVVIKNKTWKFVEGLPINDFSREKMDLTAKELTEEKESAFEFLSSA

Row | stoichiometry N [1] | Molecule | stoichiometry N (native MS)
1 | 2 | malate dehydrogenase (from UniProt P40925 1-334) (enzyme) | 
2 |  | S100-A1 (natural protein, human (endogenous in heart tissue), UniProt P23297 2-94, looked up, N-terminal methionine removed and N-terminus acetylated (primary proteoform)) GSELETAMETLINVFHAHSGKEGDKYKLSKKELKELLQTELSGFLDAQKDVDAVDKVMKELDENGDGEVDFQEYVVLVAALTVACNNFFWENS | 2
